# Measured values published in patent US20050164308A1, “Beta-lactamase CD4+ T-cell epitopes” (priority 2003, published 2005).
# Positions count from the first letter of the chain named. Names may count otherwise.
# B1: pCD1.1: epitope-modified beta-lactamase K21A/S324A (protein)
# chain: TPVSEKQLAEVVANTITPLMAAQSVPGMAVAVIYQGKPHYYTFGKADIAANKPVTPQTLFELGSISKTFTGVLGGDAIARGEISLDDAVTRYWPQLTGKQWQGIRMLDLATYTAGGLPLQVPDEVTDNASLLRFYQNWQPQWKPGTTRLYANASIGLFGALAVKPSGMPYEQAMTTRVLKPLKLDHTWINVPKAEEAHYAWGYRDGKAVRVSPGMLDAQAYGVKTNVQDMANWVMANMAPENVADASLKQGIALAQSRYWRIGSMYQGLGWEMLNWPVEANTVVEGSDSKVALAPLPVAEVNPPAPPVKASWVHKTGSTGGFGAYVAFIPEKQIGIVMLANTSYPNPARVEAAYHILEALQ
# B2: BLA: beta-lactamase precursor (cephalosporinase) from Enterobacter cloacae, GenBank Accession No. P05364, SEQ ID NO:1 (protein, listed as Enterobacter cloacae)
# chain: B1 chain with A21K, A324S
# Columns and labels:
# PBMCs = assay: PBMC proliferation assay; assay type: cell-based, human; settings: 26 donors
# Procedure: The blood samples used in these experiments were the same as described above (i.e., before Example 1). The PBMCs were separated using Lymphoprep, as known in the art. The PBMCs were washed in PBS and counted using a Cell Dyn® 3700 blood analyzer (Abbott). The cell numbers and differentials were recorded. The PBMCs were resuspended to 4×10^6 cells/ml, in a solution of heat-inactivated human AB serum, RPMI 1640, pen/strep, glutamine, and 2-ME. Then, 2 mls per well were plated into 24-well plates. Two wells were used as no-enzyme controls. Then, the unmodified beta-lactamase and modified beta-lactamases were added to the wells at a concentrations of 10 ug/ml, 20 ug/ml, and 40 ug/ml. The epitope-modified beta-lactamases tested were K21A/S324A (designated as “pCD1.1”) and K21A/S324A/L149S (designated as “pCD08.3”). The K21A mutation corresponds to SEQ ID NO:10, while the S324A mutation corresponds to SEQ ID NO:48, and the L149S mutation corresponds to SEQ ID NO:84. The S324 variant is in epitope #107, while K21A is in epitope #6, and L149S is in epitope #49. […] These plates were incubated for 6 hours, the cells harvested and counted. […] SI values were calculated by dividing the average for each set of eight wells for each sample by the average CPM for the control well. The data were analyzed by creating a dataset representing the highest SI value achieved for each donor and each enzyme. […]
# mouse splenocytes [1] = assay: Proliferative response of splenocytes from immunized mice to BLA peptides; assay type: in vivo, CB6F1 mice; settings: mice immunized i.p. 20 μg in alum, days 1, 7, 15; tested day 19
# Procedure: (§1) In this Example, experiments conducted to test the reduced immunogenicity of pCD1.1 in vivo are described. In these experiments, CB6F1 mice were immunized intraperitoneally with 20 μg of either wild-type BLA, or the CD1.1 protein in alum per mouse, as known in the art. Mice were immunized on days 1, 7, and 15 (i.e., d=1, d=7 and d=15). Splenocytes were tested for reactivity with BLA peptides on day 19. […] This response correlates with one of the human defined epitopes.
# mouse splenocytes [2] = assay: Proliferative response of splenocytes from immunized mice to whole protein BLA or CD1.1; assay type: in vivo, CB6F1 mice; settings: mice immunized with the labelled protein; restimulated with BLA or CD1.1
# Procedure: as §1
# Splenocytes from immunized mice were tested in vitro for their proliferative response to whole protein BLA or CD1.1. […] However, it is not intended that the present invention be limited to any particular mechanism.
# [3] = tested on: BLA-specific IgG1 antibody; assay: Antigen-specific ELISA on serum of thrice-immunized mice; assay type: in vivo, CB6F1 mice; settings: BLA or CD1.1 as plate coating
# Procedure: as §1
# In addition, serum samples were taken from the thrice-immunized mice and an antigen-specific ELISA was performed (FIG. 16). Mice immunized with BLA produced robust levels of anti-BLA IgG1 antibody. […] ELISA assays were performed using both BLA and CD1.1 as the plate-coating reagent, with identical results.
molecule,measurement,setting,value
B1,average proliferative response (SI) compared to wild-type beta-lactamase,"PBMCs; 10, 20, 40 ug/ml, highest SI per donor",less proliferation
same,percent of responders compared to wild-type beta-lactamase,PBMCs; responder if highest SI > 1.99,fewer donors
same,splenocyte proliferative response to the peptide 107 region,mouse splenocytes [1],no longer responded
same,splenocyte proliferative response to the peptide 114 region,mouse splenocytes [1],no longer responded
same,in vitro proliferative response of immunized mouse splenocytes to whole protein,mouse splenocytes [2],unable to respond significantly
same,anti-BLA IgG1 antibody level,[3],did not produce significant levels
B2,splenocyte proliferative response to the peptide 107 region,mouse splenocytes [1],respond strongly
same,splenocyte proliferative response to the peptide 114 region,mouse splenocytes [1],Responses were also noted
same,in vitro proliferative response of immunized mouse splenocytes to whole protein,mouse splenocytes [2],increased
same,anti-BLA IgG1 antibody level,[3],robust levels
